Non-standard residues stand in square brackets, D forms with d. Residues, ends and D or L forms follow the SMILES beside them. No end group written: not given here. *: point of attachment. dPhe(F5) = N[C@H](Cc1c(F)c(F)c(F)c(F)c1F)C(=O)O; X2 = CC(C)C[C@@H](CN[C@@H](CC(C)C)C(N)=O)N*; Sta = CC(C)C[C@H](N)[C@@H](O)CC(=O)O; pGlu = O=C1CC[C@@H](C(=O)O)N1; dNMeA = CN[C@H](C)C(=O)O
Assays:
[1] = target: T1, 3T3 fibroblast bombesin receptors (3T3 GRP receptor) (Mus musculus, UniProt P21729); test: In vitro inhibition of [125I]GRP binding to 3T3 fibroblast bombesin receptors; design: species or system murine; details: for activity in the 3T3 GRP receptor binding assay (in words): Table 1; for IC50: inhibition of [125I]GRP binding, 3T3 membranes, read-out: 3T3 GRP Receptor IC50
T1 construct: Membranes from various tissues (rat brain, rat pancreas, rat anterior pituitary, SCLC, 3T3 cells) are prepared by homogenization; endogenous in cells; host or cells: 3T3 fibroblasts (membrane preparation)
T1 sequence (P21729 whole entry): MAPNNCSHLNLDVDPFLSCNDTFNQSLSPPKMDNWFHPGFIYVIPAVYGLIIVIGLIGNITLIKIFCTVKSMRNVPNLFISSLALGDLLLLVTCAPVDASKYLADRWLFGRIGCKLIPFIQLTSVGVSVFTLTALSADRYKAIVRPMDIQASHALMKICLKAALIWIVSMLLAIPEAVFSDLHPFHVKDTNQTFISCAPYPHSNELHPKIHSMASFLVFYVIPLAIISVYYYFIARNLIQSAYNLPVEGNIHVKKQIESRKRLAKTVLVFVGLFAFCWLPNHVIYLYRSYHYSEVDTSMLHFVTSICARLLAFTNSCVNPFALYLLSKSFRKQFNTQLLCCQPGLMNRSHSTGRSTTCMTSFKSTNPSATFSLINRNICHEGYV
Description: Phase 4—In Vitro Inhibition of [^125I] Gastrin Releasing Peptide (GRP) Binding to Bombesin Receptors
Membranes from various tissues (rat brain, rat pancreas, rat anterior pituitary, SCLC, 3T3 cells) are prepared by homogenization in 50 mM TrisHCl containing 0.1% bovine serum albumin and 0.1 mg/ml bacitracin followed by two centrifugations (39,000×g×15 min., 4° C.) with an intermediate resuspension in-fresh buffer. For assay, aliquots […] are incubated with 0.5 nM [^125I]GRP (˜2000 Ci/mmol, Amersham Corp.) and various concentrations of the test compounds in a final volume of 0.5 ml. After a 30 minute incubation at 4° C., the binding reaction is terminated by rapid filtration through Whatman GF/C filters that have been pre-soaked in 0.3% aqueous polethyleneimine to reduce the level of nonspecific binding. The filters and tubes are washed three times with 4 ml aliquots of ice-cold buffer, and the radioactivity trapped on the filters is counted by gamma-spectrometry. Specific binding is defined as the total. [^125I]GRP bound minus that bound in the presence of 1000 nM. bombesin or a related peptide.
(§1) A number of analogs of bombesin or GRP, each containing a non-peptide bond or a statine, AHPPA, or ACHPA, β-amino acid, or γ-amino acid residue, can be synthesized and tested in one or more of the above-described Phase 1-7 assays; the results of Phase 1 and 2 tests are given in Table 1 attached hereto. […] (3T3 GRP receptor and thymidine uptake data are expressed in IC50 (nM).) Table 1 also gives results for non-peptide bond-containing analogs of one other naturally-occurring peptide, Neuromedin C, whose C-terminal seven amino acids are similar to those of bombesin and GRP. (In Table 1, “Litorin” indicates a 9 residue peptide analog or its derivative, whereas “Neuromedin C” indicates a 10 residue analog or its derivative.)

swiss 3T3 cells = swiss 3T3 cells (Mus musculus, UniProt P21729); test: Bombesin-stimulated [3H]thymidine uptake by cultured 3T3 cells; format: cell-based, murine; details: Table 1
Sequence of swiss 3T3 cells (P21729 whole entry): as above
Description: Phase 1—3T3 Peptide Stimulated [^3H] Thymidine Uptake Assay
Cell Culture. Stock cultures of swiss 3T3 cells are grown in Dulbecco's Modified Eagles Medium (DMEM) supplemented with 10% fetal calf serum in humidified atmosphere of 10% CO2/90% air at 37° C. For experimental use, the cells are seeded into 24-well cluster trays and used four days after she last change of medium. The cells are arrested in the G1/G0 phase of the cell cycle by changing to serum-free DMEM 24 hours prior to the thymidine uptake assay.
Assay of DNA Synthesis. The cells are washed twice with 1 ml aliquots of DMEM (-serum) then incubated with DMEM (-serum), 0.5 μM [methyl-^3H] thymidine (20 Ci/mmole, New England Nuclear), bombesin (3 nM), and initially four concentrations of the test compounds (1, 10, 100, 1000 nM) in a final volume of 1.0 ml. After 28 hours at 37° C., [methyl-^3H] thymidine incorporation into acid-insoluble pools is assayed as follows. The cells are washed twice with ice-cold 0.9% NaCl (1 ml aliquots), and acid soluble radioactivity is removed by a 30 min. (4° C.) incubation with 5% trichloroacetic acid (TCA). The cultures are then washed once (1 ml) with 95% ethanol and solubilized by a 30 min. incubation (1 ml) with 0.1N NaOH. The solubilized material is transferred to vials containing 10 ml ScintA (Packard), and the radioactivity is determined by liquid scintillation spectrometry.
as §1

bombesin receptor = target: T2, bombesin receptor (Rattus norvegicus, UniProt P52500); test: Displacement of 125I-labeled bombesin from rat pancreatic acini cells; format: binding; details: read-out: half-maximal effective dose, displacement of 125I-labeled bombesin
T2 construct: displace ^125I-labeled bombesin from rat pancreatic acini cells; from tissue; host or cells: rat pancreatic acini cells
T2 sequence (P52500 whole entry): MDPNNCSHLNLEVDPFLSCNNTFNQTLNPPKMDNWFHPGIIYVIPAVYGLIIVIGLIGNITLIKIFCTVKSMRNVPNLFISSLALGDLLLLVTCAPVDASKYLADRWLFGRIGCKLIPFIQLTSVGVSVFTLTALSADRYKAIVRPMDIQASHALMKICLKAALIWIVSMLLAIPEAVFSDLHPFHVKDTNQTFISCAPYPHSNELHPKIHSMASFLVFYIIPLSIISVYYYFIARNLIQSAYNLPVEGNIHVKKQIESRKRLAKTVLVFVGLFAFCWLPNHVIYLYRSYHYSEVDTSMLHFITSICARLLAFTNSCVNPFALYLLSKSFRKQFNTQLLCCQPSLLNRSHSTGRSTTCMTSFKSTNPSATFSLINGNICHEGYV
From the text: D-Phe-Gln-Trp-Ala-Val-N-methyl-D-Ala-His-Leu-methylester and D-F5-Phe-Gln-Trp-Ala-Val-D-Ala-His-Leu-methylester were examined for their abilities to displace ^125I-labeled bombesin from rat pancreatic acini cells and to inhibit amylase release from these cells produced by bombesin itself.

[2] = target: 3T3 fibroblast bombesin receptors (murine (3T3 murine fibroblasts)) (UniProt P21729)
Sequence of 3T3 fibroblast bombesin receptors (murine (3T3 murine fibroblasts)) (P21729 whole entry): as the sequence (P21729 whole entry) above

[3] = target: 3T3 fibroblast bombesin receptors (murine (3T3 murine fibroblasts)) (UniProt P21729); test: inhibition of [125I]GRP binding to 3T3 cell membranes
[4] = tested on: rat anterior pituitary cells; test: Growth hormone release from primary culture of rat anterior pituitary cells (agonist potency); format: cell-based; details: GH release, relative to GRF(1-29)NH2 = 100; 4-point assay
Description: Phase 7—Inhibition of Growth Hormone Release
Anterior pituitaries from adult male rats, weighing 200-250 g and housed under controlled conditions (lights on from 0500-1900 h), were dispersed using aseptic technique by a previously described trypsin/DNase method (Heiman et al., Endocrinology, 1985, 116, 410) derived from other methods (Hoefer et al., Mol. Cell. Endocrinol., 1984, 35, 229).
The dispersed cells were diluted with sterile-filtered Dulbecco's modified Eagle medium (MEM) (Gibco Laboratories, Grand Island, N.Y. (GIBCO)), which was supplemented with fetal calf serum (2.5%; GIBCO), horse serum (3%; GIBCO), fresh rat serum (10% stored on ice for no longer than 1 h) from the pituitary donors, MEM nonessential amino acids (1%; GIBCO), gentamycin (10/mg/mL; Sigma) and nystatin (10,000 U/mL; GIBCO). The cells were counted with a hemacytometer (approximately 2,000,000 cells per pituitary) and randomly plated at a density of 200,000 per well (Co-star cluster 24; Rochester Scientific Co., Rochester, N.Y.). […]
Growth hormone (GH) in plasma and media was measured by a standard double antibody radioimmunoassay using components supplied by the NIDDK and the National Hormone and Pituitary Program, University of Maryland School of Medicine. […] Potencies and 95% confidence intervals were calculateds by 4-point assay (Pugsley, Endocrinology, 1946, 39, 161). […]

[5] = target: bombesin receptor of rat pancreatic acini cells (rat) (UniProt P52500); test: displacement of 125I-labeled bombesin from rat pancreatic acini cells
[6] = target: bombesin receptor of rat pancreatic acini cells (rat) (UniProt P52500)
[7] = target: 3T3 fibroblast bombesin receptors (murine (3T3 murine fibroblasts), UniProt P21729); test: inhibition of [125I]GRP binding to 3T3 cell membranes

## CC(C)C[C@@H](CN[C@@H](CC(C)C)C(N)=O)NC(=O)[C@H](Cc1c[nH]cn1)NC(=O)[C@@H](C)NC(=O)[C@@H](NC(=O)[C@H](C)NC(=O)[C@H](Cc1c[nH]c2ccccc12)NC(=O)[C@H](Cc1c[nH]cn1)NC(=O)[C@@H](C)N)C(C)C [BIM-26106, desGly-D-Ala-His-Trp-Ala-Val-D-ALa-His-Leuψ[CH2CH]Leu-NH2] (H-[dA]HWAV[dA]H-X2; N-terminus assumed)
[1]
  activity in the 3T3 GRP receptor binding assay (in words): antagonists
  IC50: 401 nM
Swiss 3T3 cells
  activity in the 3T3 thymidine uptake assay (in words): antagonists

## CC(C)C[C@@H](CN[C@@H](CC(C)C)C(N)=O)NC(=O)[C@H](Cc1c[nH]cn1)NC(=O)CNC(=O)[C@@H](NC(=O)[C@H](C)NC(=O)[C@H](Cc1c[nH]c2ccccc12)NC(=O)[C@H](Cc1c[nH]cn1)NC(=O)[C@H](N)Cc1ccccc1)C(C)C [BIM-26107, D-Phe-His-Trp-Ala-Val-Gly-His-Leuψ[CH2NH]Leu-NH2] (H-[dF]HWAVGH-X2)
[1]
  activity in the 3T3 GRP receptor binding assay (in words): antagonists
  IC50: 199 nM
Swiss 3T3 cells
  activity in the 3T3 thymidine uptake assay (in words): antagonists

## CC(=O)N[C@H](C)C(=O)N[C@@H](Cc1c[nH]cn1)C(=O)N[C@@H](Cc1c[nH]c2ccccc12)C(=O)N[C@@H](C)C(=O)N[C@H](C(=O)NCC(=O)N[C@@H](Cc1c[nH]cn1)C(=O)N[C@H](CN[C@@H](CC(C)C)C(N)=O)CC(C)C)C(C)C [BIM-26108, N-Ac-D-Ala-His-Trp-Ala-Val-Gly-His-Leuψ[CH2NH]Leu-NH2] (Ac-[dA]HWAVGH-X2)
[1]
  IC50: 841 nM
Swiss 3T3 cells
  activity in the 3T3 thymidine uptake assay (in words): negative results

## COC(=O)[C@H](CC(C)C)NC(=O)[C@H](Cc1c[nH]cn1)NC(=O)[C@@H](C)NC(=O)[C@@H](NC(=O)[C@H](C)NC(=O)[C@H](Cc1c[nH]c2ccccc12)NC(=O)[C@H](CCC(N)=O)NC(=O)[C@H](N)Cc1c(F)c(F)c(F)c(F)c1F)C(C)C [D-F5-Phe-Gln-Trp-Ala-Val-D-Ala-His-Leu-methylester] (H-[dPhe(F5)]QWAV[dA]HL-OMe)
Bombesin receptor
  IC50: 5 to 10 nM

## COC(=O)[C@H](CC(C)C)NC(=O)[C@H](Cc1c[nH]cn1)NC(=O)[C@@H](C)N(C)C(=O)[C@@H](NC(=O)[C@H](C)NC(=O)[C@H](Cc1c[nH]c2ccccc12)NC(=O)[C@H](CCC(N)=O)NC(=O)[C@H](N)Cc1ccccc1)C(C)C [D-Phe-Gln-Trp-Ala-Val-N-methyl-D-Ala-His-Leu-methylester] (H-[dF]QWAV[dNMeA]HL-OMe)
Bombesin receptor
  IC50: 5 to 10 nM

## BIM-26114, D-Nal-Gln-Trp-Ala-Val-Gly-His-Leuψ[CH2NH]Leu-NH2 (Litorin analog) (peptide)
[2]
  bombesin-stimulated [3H]Thymidine uptake, IC50: 28 nM
[3]
  IC50: 23.5 nM

## BIM-26136, D-Nal-Gln-Trp-Ala-Val-Gly-His-Leuψ[CH2NH]Phe-NH2 (Litorin analog) (peptide)
[2]
  bombesin-stimulated [3H]Thymidine uptake, IC50: 3.3 nM
[3]
  IC50: 1.4 nM

## BIM-26182, D-Cpa-Gln-Trp-Ala-Val-Gly-His-β-Leu-NH2 (Litorin analog) (peptide)
[2]
  bombesin-stimulated [3H]Thymidine uptake, IC50: 4.77 nM
[3]
  IC50: 0.88 nM

## GRF(1-29)NH2 [reference compound]
[4]
  Potency (%): 100%

## The analogues (D-Phe-Gln-Trp-Ala-Val-N-methyl-D-Ala-His-Leu-methylester and D-F5-Phe-Gln-Trp-Ala-Val-D-Ala-His-Leu-methylester)
[5]
  half-maximal effective dose: 5 to 10 nM
[6]
  inhibition of amylase release produced by bombesin, half-maximal effective dose: 5 to 10 nM

B1: BIM-26101, pGlu-Gln-Trp-Ala-Val-Gly-His-Leuψ[CH2NH]Leu-NH2 (Litorin analog) (peptide)
peptide: [pGlu]QWAVGHLL-NH2
modifications: also: reduced bond ψ[CH2NH] between Leu8 and Leu9
[2]
  bombesin-stimulated [3H]Thymidine uptake, IC50: 296 nM
[7]
  IC50: 118 nM

B2: BIM-26120, pGlu-Gln-Trp-Ala-Val-Gly-His-Sta-NH2 (Litorin analog) (peptide)
peptide: [pGlu]QWAVGH[Sta]-NH2
SMILES: CC(C)C[C@H](NC(=O)[C@H](Cc1c[nH]cn1)NC(=O)CNC(=O)[C@@H](NC(=O)[C@H](C)NC(=O)[C@H](Cc1c[nH]c2ccccc12)NC(=O)[C@H](CCC(N)=O)NC(=O)[C@@H]1CCC(=O)N1)C(C)C)[C@@H](O)CC(N)=O
[2]
  bombesin-stimulated [3H]Thymidine uptake, IC50: 165 nM
[7]
  IC50: 150 nM

B3: BIM-26092, Gly-Asn-His-Trp-Ala-Val-Gly-His-Leuψ[CH2NH]Leu-NH2 (Neuromedin C analog) (peptide)
peptide: GNHWAVGHLL-NH2
modifications: also: reduced bond ψ[CH2NH] between Leu9 and Leu10
[2]
  bombesin-stimulated [3H]Thymidine uptake, IC50: 466 nM
[7]
  IC50: 242 nM

B4: BIM-26122, D-Phe-Gln-Trp-Ala-Val-Gly-His-Leu-NH2 (Litorin analog) (peptide)
peptide: FQWAVGHL
modifications: D-Phe at 1; C-terminal amide
[7]
  IC50: 5.9 nM

B5: BIM-26100, pGlu-Gln-Trp-Ala-Val-Gly-His-Pheψ[CH2NH]Leu-NH2 (Litorin analog) (peptide)
peptide: EQWAVGHFL
modifications: pGlu at 1 (written E); reduced peptide bond ψ[CH2NH] between Phe 8 and Leu 9; C-terminal amide
[2]
  bombesin-stimulated [3H]Thymidine uptake, IC50: 26 nM
[7]
  IC50: 23 nM

— patent publication US20050026827A1, “Octapeptide bombesin analogs” (Societe de Conseils de Recherches et d'Applications …, priority 1987, published 2005)
